The target of the experiment is CD16.7-PC1-WT (human) (UniProt P08637). Kind of experiment: co-IP.

For “Rab8, human, endogenous (from UniProt P61006 1-207) (natural protein)”, the fold coprecipitation above the background of untransfected cell lysates amounted to 2 fold.

Substance “Rab11, human, endogenous (from UniProt P62491 1-216) (natural protein)” came in with a fold coprecipitation above the background of untransfected cell lysates of 1.3 fold.

Source of the values: article PMC3172256.
